Measurements taken from patent US10858688B2, “Observation method using binding and dissociation probe” (KYOTO UNIVERSITY, priority 2015, dated 2020).

Experiments:
[1] = test system: intermediate filament; assay: Washability test of probe candidates; assay type: cell-based, Xenopus laevis; design: key: “washability” is positive (P) when above criterion (2) is met; conditions: speckles equal to or less than about 10% after switching imaging solution 10 to 20 times
Procedure: (2) It is possible to wash and remove a probe after SiMS imaging (imaging step);
The […] of the above (2), whose result is shown in table 1, was performed in the following procedures. […] This switching of imaging solution was conducted slowly so that the observation position would not shift. Next, an imaging solution not containing a probe and not containing the active oxygen-scavenging mix was switched 10 to 20 times. After the switching, for confirmation, for an XCT cell sample in the observation chamber, speckle images of 10 frames were picked up under a similar condition to that of the localization test described in the previous paragraph, and when the number of speckles confirmed in the speckle images (i.e., the number of probes that had bound) became sufficiently smaller (equal to or less than about 10%) than the number of the speckles in the speckle images before the washing operation, washing was determined to be possible and the result was treated as P (positive).

[2] = test system: intermediate filament; assay: IRIS image test (reconstruction image); assay type: cell-based, Xenopus laevis; design: key: “IRIS image” is positive (P) when above criterion (3) is met; conditions: reconstruction from 10000 frames with DAOSTORM
Procedure: […] It is possible to reconstruct an image of a target substance by integrating the central positions of the respective speckles. The IRIS image test of the above (3) whose result is described in table 1 was performed in the following procedures. By using all the speckle images of 10000 frames picked up in the localization test, the central point of a probe that has bound to a target in each frame of the speckle images was determined with nanometer accuracy by using DAOSTORM. By adding a large number of pieces of central point information in the fluorescence images of 10000 frames, a reconstruction image (observation image) was generated. Whether or not a distribution of a target molecule was able to be observed in that reconstruction image was determined, and when a distribution of a target molecule was observed, the result was treated as P (positive).

[3] = test system: intermediate filament; assay: Localization test of probe candidates (integrated SiMS images); assay type: cell-based, Xenopus laevis; design: key: “localization” is positive (P) when above criterion (1) is met; conditions: fixed, permeabilized XTC cell; lysate supernatant of EGFP fused probe; TIRF, 10000 frames
Procedure: HEK (Human embryonic kidney)-293F cells were transfected with a plasmid encoding a probe candidate protein tagged with FLAG-EGFP or 3×FLAG-EGFP. […] Centrifugal separation was performed on the lysate and the supernatant liquid was collected. In order to perform screening for a probe for IRIS, the binding capacity of a probe candidate in the supernatant liquid with respect to the structure of an XCT cell that was fixed with paraformaldehyde (PFA) and that received a permeabilization process was tested. The appearance and disappearance of single molecule speckles (Single-molecule speckles, SiMS) in the structure was tested. Screening was performed for a probe for IRIS in accordance with the following criteria:
(1) It is possible to confirm a distribution of target substances in the structure in an image resulting from adding SiMS images;
The localization test of the above (1), whose result is shown in table 1, was performed in the following procedures. First, the supernatant liquid of lysate of a cell that expressed each probe candidate was brought into contact with an XCT cell that was fixed on a coverglass and that received a permeabilization process. […] The obtained speckle images of 10000 frames were integrated so as to confirm whether or not a distribution of target substances in the cell (microtubule, intermediate filament, focal adhesion or actin filament) was able to be confirmed. When a distribution of a target substances was able to be confirmed, the result of the localization test was treated as P (positive).

[4] = test system: intermediate filament; assay: Measurement of binding half-life of probe-target complex; design: species or system Xenopus laevis; conditions: fixed XTC cell, single exponential fit
Text: A probe and a target substance have the following binding characteristics. […] The above half-life herein is preferably a half-life of a probe-target complex formed by binding between a probe and a target substance in a case when a medium containing a probe and a sample containing a target substance that is to be observed are brought into contact under a condition for performing an imaging step. […] Measurement procedures for the half-life are as below. […] Ndissociation is a cumulative relative frequency of a probe that dissociated. A cumulative relative frequency is a ratio of the speckles that disappeared within a given period of time to the total number of measured speckles (i.e. probes) (i.e. probes that dissociated within a given period of time), and represents the total number as 1. Then, by fitting the above complementary cumulative relative frequency function with an exponent function, that half-life is calculated.
The measurement of binding half-life, whose result is shown in table 1, was performed in the following procedures. Speckle images of 10000 frames picked up in the localization test were used in order to measure a period of time between the appearance of a probe that has bound to a target in a speckle image and disappearance through dissociation in a semi-manual mode by using Speckle TrackerJ, an ImageJ plug-in. In case of for example picking up of images with an exposure time of 50 ms and at a frame rate of 20 Hz, it is assumed that a period of time between the appearance and disappearance of a speckle that is observed in only one of consecutive frames is 50 ms and a period of time between the appearance and disappearance of a speckle observed in only two consecutive frames is 100 ms. […] Ndissociation is a cumulative relative frequency of probes that dissociated. Then, by fitting the complementary cumulative relative frequency function with an exponent function, the half-life was calculated. However, the binding half-life with respect to an actin filament of Atto488-Lifeact was measured by using a method that is described in detail in the section for FIG. 9 in the Brief Description of the Drawings.

B1: Plectin-1 3777-4313: EGFP fused (N terminus) human Plectin-1 fragment, residues 3777-4313 of sequence number 8 (protein, UniProt Q15149 3777-4313, looked up, fragment)
chain: YDYVRRRLTAEDLFEARIISLETYNLLREGTRSLREALEAESAWCYLYGTGSVAGVYLPGSRQTLSIYQALKKGLLSAEVARLLLEAQAATGFLLDPVKGERLTVDEAVRKGLVGPELHDRLLSAERAVTGYRDPYTEQTISLFQAMKKELIPTEEALRLLDAQLATGGIVDPRLGFHLPLEVAYQRGYLNKDTHDQLSEPSEVRSYVDPSTDERLSYTQLLRRCRRDDGTGQLLLPLSDARKLTFRGLRKQITMEELVRSQVMDEATALQLREGLTSIEEVTKNLQKFLEGTSCIAGVFVDATKERLSVYQAMKKGIIRPGTAFELLEAQAATGYVIDPIKGLKLTVEEAVRMGIVGPEFKDKLLSAERAVTGYKDPYSGKLISLFQAMKKGLILKDHGIRLLEAQIATGGIIDPEESHRLPVEVAYKRGLFDEEMNEILTDPSDDTKGFFDPNTEENLTYLQLMERCITDPQTGLCLLPLKEKKRERKTSSKSSVRKRRVVIVDPETGKEMSVYEAYRKGLIDHQTYLELSEQEC
modifications: N-terminal EGFP fusion
WASHABILITY [1]: P | IRIS IMAGE [2]: P | LOCALIZATION [3]: P | HALF-LIFE [4]: 0.052 s

B2: Plectin-1 3777-4684: EGFP fused (N terminus) human Plectin-1 fragment, residues 3777-4684 of sequence number 8 (protein, listed as Homo sapiens)
chain: YDYVRRRLTAEDLFEARIISLETYNLLREGTRSLREALEAESAWCYLYGTGSVAGVYLPGSRQTLSIYQALKKGLLSAEVARLLLEAQAATGFLLDPVKGERLTVDEAVRKGLVGPELHDRLLSAERAVTGYRDPYTEQTISLFQAMKKELIPTEEALRLLDAQLATGGIVDPRLGFHLPLEVAYQRGYLNKDTHDQLSEPSEVRSYVDPSTDERLSYTQLLRRCRRDDGTGQLLLPLSDARKLTFRGLRKQITMEELVRSQVMDEATALQLREGLTSIEEVTKNLQKFLEGTSCIAGVFVDATKERLSVYQAMKKGIIRPGTAFELLEAQAATGYVIDPIKGLKLTVEEAVRMGIVGPEFKDKLLSAERAVTGYKDPYSGKLISLFQAMKKGLILKDHGIRLLEAQIATGGIIDPEESHRLPVEVAYKRGLFDEEMNEILTDPSDDTKGFFDPNTEENLTYLQLMERCITDPQTGLCLLPLKEKKRERKTSSKSSVRKRRVVIVDPETGKEMSVYEAYRKGLIDHQTYLELSEQECEWEEITISSSDGVVKSMIIDRRSGRQYDIDDAIAKNLIDRSALDQYRAGTLSITEFADMLSGNAGGFRSRSSSVGSSSSYPISPAVSRTQLASWSDPTEETGPVAGILDTETLEKVSITEAMHRNLVDNITGQRLLEAQACTGGIIDPSTGERFPVTDAVNKGLVDKIMVDRINLAQKAFCGFEDPRTKTKMSAAQALKKGWLYYEAGQRFLEVQYLTGGLIEPDTPGRVPLDEALQRGTVDARTAQKLRDVGAYSKYLTCPKTKLKISYKDALDRSMVEEGTGLRLLEAAAQSTKGYYSPYSVSGSGSTAGSRTGSRTGSRAGSRRGSFDATGSGFSMTFSSSSYSSSGYGRRYASGSSASLGGPESAVA
modifications: N-terminal EGFP fusion
WASHABILITY [1]: P | IRIS IMAGE [2]: P | LOCALIZATION [3]: P | HALF-LIFE [4]: 0.457 s

B3: Plectin-1 3777-4364: EGFP fused (N terminus) human Plectin-1 fragment, residues 3777-4364 of sequence number 8 (protein, UniProt Q15149 3777-4364, looked up, fragment)
chain: YDYVRRRLTAEDLFEARIISLETYNLLREGTRSLREALEAESAWCYLYGTGSVAGVYLPGSRQTLSIYQALKKGLLSAEVARLLLEAQAATGFLLDPVKGERLTVDEAVRKGLVGPELHDRLLSAERAVTGYRDPYTEQTISLFQAMKKELIPTEEALRLLDAQLATGGIVDPRLGFHLPLEVAYQRGYLNKDTHDQLSEPSEVRSYVDPSTDERLSYTQLLRRCRRDDGTGQLLLPLSDARKLTFRGLRKQITMEELVRSQVMDEATALQLREGLTSIEEVTKNLQKFLEGTSCIAGVFVDATKERLSVYQAMKKGIIRPGTAFELLEAQAATGYVIDPIKGLKLTVEEAVRMGIVGPEFKDKLLSAERAVTGYKDPYSGKLISLFQAMKKGLILKDHGIRLLEAQIATGGIIDPEESHRLPVEVAYKRGLFDEEMNEILTDPSDDTKGFFDPNTEENLTYLQLMERCITDPQTGLCLLPLKEKKRERKTSSKSSVRKRRVVIVDPETGKEMSVYEAYRKGLIDHQTYLELSEQECEWEEITISSSDGVVKSMIIDRRSGRQYDIDDAIAKNLIDRSALDQYRAGTL
modifications: N-terminal EGFP fusion
WASHABILITY [1]: P | IRIS IMAGE [2]: P | LOCALIZATION [3]: P | HALF-LIFE [4]: 0.059 s

B4: Plectin-1 4022-4364: EGFP fused (N terminus) human Plectin-1 fragment, residues 4022-4364 of sequence number 8 (protein, listed as Homo sapiens)
chain: FRGLRKQITMEELVRSQVMDEATALQLREGLTSIEEVTKNLQKFLEGTSCIAGVFVDATKERLSVYQAMKKGIIRPGTAFELLEAQAATGYVIDPIKGLKLTVEEAVRMGIVGPEFKDKLLSAERAVTGYKDPYSGKLISLFQAMKKGLILKDHGIRLLEAQIATGGIIDPEESHRLPVEVAYKRGLFDEEMNEILTDPSDDTKGFFDPNTEENLTYLQLMERCITDPQTGLCLLPLKEKKRERKTSSKSSVRKRRVVIVDPETGKEMSVYEAYRKGLIDHQTYLELSEQECEWEEITISSSDGVVKSMIIDRRSGRQYDIDDAIAKNLIDRSALDQYRAGTL
modifications: N-terminal EGFP fusion
WASHABILITY [1]: P | IRIS IMAGE [2]: P | LOCALIZATION [3]: P | HALF-LIFE [4]: 0.103 s

B5: Plectin-1 4066-4364: EGFP fused (N terminus) human Plectin-1 fragment, residues 4066-4364 of sequence number 8 (protein, listed as Homo sapiens)
chain: LEGTSCIAGVFVDATKERLSVYQAMKKGIIRPGTAFELLEAQAATGYVIDPIKGLKLTVEEAVRMGIVGPEFKDKLLSAERAVTGYKDPYSGKLISLFQAMKKGLILKDHGIRLLEAQIATGGIIDPEESHRLPVEVAYKRGLFDEEMNEILTDPSDDTKGFFDPNTEENLTYLQLMERCITDPQTGLCLLPLKEKKRERKTSSKSSVRKRRVVIVDPETGKEMSVYEAYRKGLIDHQTYLELSEQECEWEEITISSSDGVVKSMIIDRRSGRQYDIDDAIAKNLIDRSALDQYRAGTL
modifications: N-terminal EGFP fusion
WASHABILITY [1]: P | LOCALIZATION [3]: P | HALF-LIFE [4]: 7.7 s
